# Test system: K4 kissing-loop RNA reporter
# Test: apparent KD of K4 kissing-loop reporter; higher = weaker reporter binding
# Details: Eterna round: R107; input ligand: FMN 200 uM
# Experimental: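 RNA-MaP round R107: designed RNA switches with theophylline, tryptophan, arginine or FMN aptamers are transcribed on-chip within common flanks. They are titrated with a labelled K4 kissing-loop RNA reporter in RNA-MaP buffer (100 mM Tris pH 7.5, 80 mM KCl, 4 mM MgCl2), without ligand or with the indicated ligand. Median apparent KD per design.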
# 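Note: bound reporter read as fluorescence of individual clusters on recovered sequencing chips by microscopy, with normalized cluster intensities fitted with a binding model.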
row,Sequence,apparent KD of K4 kissing-loop reporter [µM]
1,CGCAGUGAUGUUGCGAAUAUAAUCACGGAAGGAGCGCGUGAAAACGCAGGUAGGUCGCCGUGUGGUAUGAUGGAAACAUCGUACC [Arginine A K4 12],0.222
2,ACACUCGGCUCGGCCGCCACUCCAGUGAUGUUGGAGUCAUAGCUAUGACGAGAAGAGCGUUUUCGGAGGACCGGGAGCUCACAGG [Leveeder],0.338
3,CGUUUAUAGCAGGAUACCAGUACCCAUAAAGUACGUUAAUAGUAGAGUGAUGUUCUAAAGUACCCUUGGCAGCUUCCCGUGACCC [ExTheophylB.W],0.103
4,AUCCGAGAAUAUGAUACCAGCUGAGUGUAUCAAGACCGUAUCUCCCGUGCUAGUGAUGUUAGCCCUUGGCAGCAUAUGAAAGCGG [theeternabot_exclusion_KL_Theo_B_15],0.635
5,UAGUCUCGAGUCUGAGAUUACGGGUCAGAUACCAGACUAGAGAUAGUCCCUUGGCAGCUGAAGUUCAGUGAUGUUGAACGGAUUA [Theo B SS t10a],0.501
6,AAUUAAUGUAUAGAUUAUAUACAUUAAUCAGAGGAUAUGCUUUGUUGCAGAAGGCUGAAUGCAGUGAUGUUGCAAUUUUAAUUUA [JR_SSFMNA_Sub005],0.0508
7,CGCAAGCAGCCAGUGAUGUUGGCCGCCUUGCGAGGACCGGUACGGCCGCCACUCGAAGGCGGCUACUGAUAAACCGUCUAACGGA [KL-XTryp-A9],0.112
8,ACGUUCGGAACGGCCGCCACUAUGGGCAGUGAUGUUGCCCAUAACCGGUUUUGCGUCAGAUCCCUUAGGACCGGGUUCUGGUAUA [Soonlesoso],0.0784
9,AGUGAUGUAUGGCGGUUUGUCACUUAUUAUCAGGAUAUAUAAACAAAUAGAAGGGAUGGCGGAGUGAUGUUCCGCCGGCCGCCAU [FMN A Exl V5],0.172
10,AGAACUGUCUUGGAUACCAGUGAUGUUGGUAUCUGUGUGUGAGUGCAAAGCGUCCCACAUUGCCCUUGGCAGCUAAGACUGUUCA [Omei KL Theo B Exc A v1],0.147
11,UUUGAAAUGACUGAUACCAGUGAAAAUAUAUGUAGUGAUGUUAUAUACUAAUUUAAUAAGCGCCCUUGGCAGCAGUAUGAAUUAU [AstrosExc-theB#16],0.763
12,GCGAGUUUGCAAGGAUAUCGACCGUCGUACGACCAGUGAUGUUGGGAGUACUUUCAAAAUCGAUUUCGAGAAGGUGCUGGCAUCA [theeternabot_sameState_KL_FMN_B_12],0.271
13,UAAUAUAAUCUGUCGUAAACAAUAAUUAGUCAGGAUAUCGUAUAUUCGAGAAGGGACACUAUCUAGUGAUGUUAGAUAUUUCGUU [JR_SSFMNA_Sub026],0.0455
14,GCGGGCCCUGGAGGAUAUGAGUCGAGUGAUGUUCGGCGGUCCAUGCCGAUGCGGCGUUAUGCCCUUUUAGAAGGCCAGGGCCCGC [#2 Exclusion - FMN B Attempt #7 (HarryS)],0.392
15,GGUUCUGGAAUCGAGUGAUGUUCGGUGUUGCAGGAUAUAGAGAGAUCUAGAAGGGCAGUUUGUAUUUUAUUGAGUGAUUUUCUUU [Last Minute #3],0.084
16,AUCGUUGUCUGAGGAUAUCGGUUAACUGUAGUGAUGUUACAGAAAAUUCAUAUAAUAUUUUCUAUUCGAGAAGGCAGACUACGUA [JR_ExcFMNB_Sub018],0.205

row,Sequence,apparent KD of K4 kissing-loop reporter [µM]
1,GCUAUGGUAGGAAGGAGCGCUUGUUCGGUCAUAUGAGUGAUGUUCGAGACUGAGCAUUUAUAGCAGGUAGGUCGCCUACUAUAGC [Arginine B K4 10],0.164
2,GCAAUUCUCAGUGAUGUUGAGUAAUCGGAAGGAGCGCGUGAAAACGCAGGUAGGUCGCCGAAACAUGAAGUAUCUUCGUGUUUGC [Arginine A K4 24],0.18
3,GGAUUUGAGUGAUGUUUAAAACGAGUGUCCAAGGAUAUUGCCCAAACAAGAAGGUGGGCAUGCUUUUGCGAUAAUCAACGGAGAC [theeternabot_exclusion_KL_FMN_A_9],0.408
4,GUAGGAUGAGGAGGAGGAUGAAUUACUGAAGGAGCGCAUAUUUUUGCAGGUAGGUCGCGGUAAAGAAGUAUAGUGAUGUUAUAUA [SSArgA.J],0.41
5,CGUUUAUAGCAGGAUACCAGUACCCAUAAAGUACGUUAAUAGUAGAGUGAUGUUCUAAAGUACCCUUGGCAGCUUCCAGUGAGUG [ExTheophylB.S],0.102
6,AAACGCUUGAAUAACAAGCGAAUAAAUUCGCGAGGACCGGUACGGCCGCCACUCGCUAACUGCGAGUGAUGUUCGAUAAUAAAAU [Mat - Mod of OpenEnded 3 - D14],0.115
7,GGGUGGCAGGCGGCCGCCACUCUUAGCAGCCAGUGAGUGAUGUUCGUGGCGGAAGAAUGUUCGUAGAGGACCGGGUUUGUUGUUC [Same State Tryptophan B GF 21],0.262
8,UUUUACGAGUGAUGUUCGUAAUGUAAUAGUUAGGAUAUCGUUUUUUCGAGAAGGAACUUCGAAGUGAUACGAAAGUAUCGCUUCG [FMN A 9],0.127
9,GGUGGACUAGUCGAGUGAUGUUCGAGGCAUCGAGGACCGGUACGGCCGCCACUCGCAAAUCUACCGUGCGUUAACCACCAAAGUG [theeternabot_sameState_KL_Trp_A_37],0.295
10,UUGAUAUGAUAGUAUCUUGUUUGAUAAAGGCAGGAUAUCGUAUAUUUGAGAAGGGCCAUUAUAUGCAGUGAUGUUGCAAAUAAGU [Exclusion FMN A Gf 25],0.0435
11,ACUGGGUUGACGAAAGUCAACAAAUGAGAAGGAGCGCACGAAAGUGCAGGUAGGUCGCUCAUUCCAGUGAUGUUGGAUCACCAGA [#SwitchBubble 19 #K4Late],0.531
12,GAGAGCUCUGGAGGAUAUGAGUCUAGUGAUGUUAGGCGGUCCAUGCGCGUGGCGCGUUAUGCCCUUUUAGAAGGCCAGAGCUCUC [#2 Exclusion - FMN B Attempt #19 (HarryS)],0.0983
13,CUGGGUUGACGAAAAGUCAACAAACGAGAAGGAGCGCACGAAAGUGCAGGUAGGUCGCUCAGUCCAGUGAUGUUGGAACAUCCAG [#SwitchBubble 8 #K4Late],0.664
14,GGGCCUGGGCCCGGAAGGGCCUGGGCCCGUUAGGAUAUGACGUGAUUCAGAAGGGAUGGGUGGAGUGAUGUUCCACCCGAGAGGG [#2 Same State - FMN A Attempt #25 (HarryS)],0.0859
15,GAUAUAGUGAUGUUAUAUAGGAAGGAGUUACGAGGACCGGUACGGCCGCCACUCGAAACGAGUGAUGAUUUGGGAGAUUGGGUUG [SSTryptA.P],0.364
16,UGACUGGACUGAAGGAGCGCUAAAACUCCUAGUGAUGUUAGGAAAACGAGACAAAGUCUCGAGCAGGUAGGUCGCAGUCUAGUCU [ArgBS 21 #SwitchBubble #StaticStem],0.142

# Same assay, conditions: Eterna round: R107; input ligand: arginine 13.2 mM
row,Sequence,apparent KD of K4 kissing-loop reporter [µM]
1,CGCAGUGAUGUUGCGAAUAUAAUCACGGAAGGAGCGCGUGAAAACGCAGGUAGGUCGCCGUGUGGUAUGAUGGAAACAUCGUACC [Arginine A K4 12],0.207
2,ACACUCGGCUCGGCCGCCACUCCAGUGAUGUUGGAGUCAUAGCUAUGACGAGAAGAGCGUUUUCGGAGGACCGGGAGCUCACAGG [Leveeder],0.261
3,CGUUUAUAGCAGGAUACCAGUACCCAUAAAGUACGUUAAUAGUAGAGUGAUGUUCUAAAGUACCCUUGGCAGCUUCCCGUGACCC [ExTheophylB.W],0.16
4,AUCCGAGAAUAUGAUACCAGCUGAGUGUAUCAAGACCGUAUCUCCCGUGCUAGUGAUGUUAGCCCUUGGCAGCAUAUGAAAGCGG [theeternabot_exclusion_KL_Theo_B_15],0.518
5,UAGUCUCGAGUCUGAGAUUACGGGUCAGAUACCAGACUAGAGAUAGUCCCUUGGCAGCUGAAGUUCAGUGAUGUUGAACGGAUUA [Theo B SS t10a],0.394
6,AAUUAAUGUAUAGAUUAUAUACAUUAAUCAGAGGAUAUGCUUUGUUGCAGAAGGCUGAAUGCAGUGAUGUUGCAAUUUUAAUUUA [JR_SSFMNA_Sub005],0.0998
7,CGCAAGCAGCCAGUGAUGUUGGCCGCCUUGCGAGGACCGGUACGGCCGCCACUCGAAGGCGGCUACUGAUAAACCGUCUAACGGA [KL-XTryp-A9],0.0963
8,ACGUUCGGAACGGCCGCCACUAUGGGCAGUGAUGUUGCCCAUAACCGGUUUUGCGUCAGAUCCCUUAGGACCGGGUUCUGGUAUA [Soonlesoso],0.0686

# Reference: the supplement of paper PMC9170038
